The assay has as its target T1, biotin-labelled EZH2 protein (UniProt Q15910 1-746, limits assumed, biotin label (EZ-link NHS-PEO4-Biotinylation kit)).
T1 construct: Probe in solution (1 ug/ml) on the KDM2B peptide microarray; also called NHS-PEO4-Biotinylation-labelled EZH2 protein; recombinant protein
The assay is described as follows: KDM2B peptide array probed with biotin-EZH2 1 ug/ml, SA-HRP/ECL.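 Also: Background-corrected optical density of each spot on the membrane, given as percent of the brightest spot (100%), color developed for 5 minutes; 100% is the highest background-corrected spot optical density on the membrane.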
T1 sequence (Q15910 whole entry): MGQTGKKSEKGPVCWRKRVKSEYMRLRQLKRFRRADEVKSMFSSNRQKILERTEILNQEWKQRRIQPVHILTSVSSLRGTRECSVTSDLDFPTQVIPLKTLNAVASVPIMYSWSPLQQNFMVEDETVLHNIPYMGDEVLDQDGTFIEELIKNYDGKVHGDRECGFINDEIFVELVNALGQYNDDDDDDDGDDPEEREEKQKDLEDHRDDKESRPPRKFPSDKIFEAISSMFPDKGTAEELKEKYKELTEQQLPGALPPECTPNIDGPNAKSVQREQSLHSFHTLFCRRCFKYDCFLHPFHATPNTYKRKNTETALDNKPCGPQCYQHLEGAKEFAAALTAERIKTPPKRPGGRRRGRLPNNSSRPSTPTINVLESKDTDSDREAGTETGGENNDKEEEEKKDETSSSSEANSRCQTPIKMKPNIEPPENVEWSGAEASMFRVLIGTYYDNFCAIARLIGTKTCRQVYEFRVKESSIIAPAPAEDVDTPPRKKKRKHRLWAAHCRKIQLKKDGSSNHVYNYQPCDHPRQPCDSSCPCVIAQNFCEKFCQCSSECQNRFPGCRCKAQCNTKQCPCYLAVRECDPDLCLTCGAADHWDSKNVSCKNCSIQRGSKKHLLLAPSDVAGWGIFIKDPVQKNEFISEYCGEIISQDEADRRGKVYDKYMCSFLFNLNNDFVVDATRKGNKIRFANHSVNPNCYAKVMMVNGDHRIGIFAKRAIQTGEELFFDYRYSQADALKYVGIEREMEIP
Experimental: After blocking, the polypeptide microarray was incubated with biotin-labeled target protein for hybridization, visualized with the chemical chromogenic substrate and imaged using a Chempchemi digital imager. The image of colored polypeptide microarray was analyzed for the optical density of the colored points. Particularly, the optical density of each colored point was calculated using the optical density of the respective surrounding background as a reference for background correction. The highest optical density value of the colored point on membrane was set to 100%, and the optical density value of the remaining colored points was converted into percentages relative to the highest value. The points with an optical density percentage of more than 30% on the polypeptide membrane and also with an optical density percentage of less than 30% on the negative membrane were defined as positive colored points.
For the hybridization experiment, a solution of NHS-PEO4-Biotinylation-labelled EZH2 protein (1 μg/ml) was used for the hybridization of the polypeptide microarray. Streptavidin-HRP was used to amplify the reaction signal according to the experimental procedure and conditions described above, and the time of color development was 5 minutes.
For the molecule HPGCLKIKESEGVVN [peptide 140], the “Intensity (%)” value was determined as 0%.
To CEACLRTECGECHFC [peptide 124] belongs 0%; to YEKPQELSGRKRASS [peptide 162], 0%; to EFELKGLKALVEKLE [peptide 103], 4.44%.
As to GSPATEVSAKWTHLT [peptide 100], the “Intensity (%)” value was found to be 0%.
For the molecule EEEGKFNLMLMECSI [peptide 136], the “Intensity (%)” value is 0%.
For RTECGECHFCKDMKK [peptide 125] the value was 1.57%; for GEAGKEDTVEEEEGK [peptide 134], 0%.
For EGVVNDELPNCWECP [peptide 142] the value was 100%.
To PASAVKLAANRTTAG [peptide 119] belongs 0%; to TWPKKTPKNRAVGRP [peptide 115], 0%; to RTTAGARRRRTRCRK [peptide 121], 1.31%.
Consider TPKNRAVGRPKGKLG [peptide 116], for which the “Intensity (%)” value is 0%.
Turning to GFKYASNLPGSLLKE [peptide 148], the “Intensity (%)” value amounted to 0%.
As to FGGPGRMKQSCIMRQ [peptide 128], the “Intensity (%)” value amounted to 0%.
To DNKEGQEPAKRRSEC [peptide 152] belongs 97.8%.
Take VEKLESLPENKKCVP [peptide 105]: the “Intensity (%)” value worked out at 20.3%.
With WTHLTEFELKGLKAL [peptide 102], the “Intensity (%)” value is 0%.
To RRSDEHSKKVPPDGL [peptide 156] belongs 0%; to LSDVEEIVSVRGFSL [peptide 12], 0.13%; to KGKLGPASAVKLAAN [peptide 118], 0%.
With GLKALVEKLESLPEN [peptide 104], the “Intensity (%)” value is 8.01%.
As for LSPRPPLGSSLSPWW [peptide 167], the “Intensity (%)” value is 0%.
To ADDDPSLAITGVPVV [peptide 112] belongs 0%; to RKKRKYEKPQELSGR [peptide 161], 0%; to RSSLTYFQQQLKPGK [peptide 170], 2.26%.
For SLPENKKCVPEGIED [peptide 106] the value was 3.77%.
With AVGRPKGKLGPASAV [peptide 117], the “Intensity (%)” value is 0%.
For HSKKVPPDGLLRRKS [peptide 157], the “Intensity (%)” value was 18.4%.
As to DRQRYDENEDLSDVE [peptide 10], the “Intensity (%)” value was 0%.
For LSPWWRSSLTYFQQQ [peptide 169], the “Intensity (%)” value turned out to be 0%.
To GVPVVTWPKKTPKNR [peptide 114] belongs 0%.
Consider SQLYQGDFVHAMEGK [peptide 16], for which the “Intensity (%)” value stood at 1.87%.
To EVSAKWTHLTEFELK [peptide 101] belongs 2.69%; to CIAPVLPHTAVCLVC [peptide 131], 100%; to VLKEHADDDPSLAIT [peptide 111], 0.99%.
To LPHTAVCLVCGEAGK [peptide 132] belongs 100%.
With PLGSSLSPWWRSSLT [peptide 168], the “Intensity (%)” value worked out at 0%.
With CWECPKCNHAGKTGK [peptide 144], the “Intensity (%)” value came to 0%.
To QKRGPGFKYASNLPG [peptide 147] belongs 0%.
To VCLVCGEAGKEDTVE [peptide 133] belongs 12%; to KIKESEGVVNDELPN [peptide 141], 10.8%; to DENEDLSDVEEIVSV [peptide 11], 0%.
For EEKLRSQLYQGDFVH [peptide 15] the value was 0%.
As for GSSSHLSPRPPLGSS [peptide 166], the “Intensity (%)” value was determined as 0.84%.
As to KLAANRTTAGARRRR [peptide 120], the “Intensity (%)” value came out at 0%.
For PPDGLLRRKSDDVHL [peptide 158] the value was 0%; for EGIEDPQALLEGVKN [peptide 108], 0%; for DELPNCWECPKCNHA [peptide 143], 0%.
To GDFVHAMEGKDFNYE [peptide 17] belongs 0%; to RMKQSCIMRQCIAPV [peptide 129], 9.37%; to PQALLEGVKNVLKEH [peptide 109], 0%.
For MECSICNEIIHPGCL [peptide 138] the value was 26.8%; for FNLMLMECSICNEII [peptide 137], 0.24%; for KKCVPEGIEDPQALL [peptide 107], 0%.
In the case of ARRRRTRCRKCEACL [peptide 122], the “Intensity (%)” value is 100%.
For SLAITGVPVVTWPKK [peptide 113] the value was 1.55%; for EGVKNVLKEHADDDP [peptide 110], 0%.
Regarding QEPAKRRSECEEAPR [peptide 153], the “Intensity (%)” value came to 41.6%.
For the molecule ECHFCKDMKKFGGPG [peptide 126], the “Intensity (%)” value was 6.05%.
With CNEIIHPGCLKIKES [peptide 139], the “Intensity (%)” value was 85.1%.
For MAGPQMGGSAEDHPP [peptide 1], the “Intensity (%)” value is 0.25%.
Take QKMNRDNKEGQEPAK [peptide 151]: the “Intensity (%)” value was 100%.
On to TRCRKCEACLRTECG [peptide 123], for which the “Intensity (%)” value worked out at 97.3%.
As to LRRKSDDVHLRKKRK [peptide 159], the “Intensity (%)” value turned out to be 0%.
